# Measurements as given in US20140087995A1 (published 2014).
# Numbered stars: 1 amine (or outer) side, 2 acyl side, 3 side chain; on linkers, the order of the positions; unused ones are H or OH. Bridge positions count the residues as written; N and C are the ends. Side chains are listed from the residue outwards. Ends that are not written are not given here. * marks the point of attachment. C20 diacid = O=C(O)CCCCCCCCCCCCCCCCCCC(=O)*; γGlu = O=C(O)[C@H](CCC(=O)[*:2])N[*:1]; AEEA = NCCOCCOCC(=O)O
# B1: N^ε1-[2-[2-[2-[[(4S)-4-carboxy-4-(19-carboxynonadecanoylamino)butanoyl]amino]ethoxy]ethoxy]acetyl]-[Gly14,Arg17,Pro21,Pro27,Pro31]-h-amylin (peptide)
# peptide: K([AEEA-γGlu-C20 diacid])CNTATCATQRLAGFLRHSSPNFGAIPSSTPVGSNTY-NH2
# modifications: disulfide 2-7; N-terminus assumed
# SMILES: CC[C@H](C)[C@H](NC(=O)[C@H](C)NC(=O)CNC(=O)[C@H](Cc1ccccc1)NC(=O)[C@H](CC(N)=O)NC(=O)[C@@H]1CCCN1C(=O)[C@H](CO)NC(=O)[C@H](CO)NC(=O)[C@H](Cc1c[nH]cn1)NC(=O)[C@H](CCCNC(=N)N)NC(=O)[C@H](CC(C)C)NC(=O)[C@H](Cc1ccccc1)NC(=O)CNC(=O)[C@H](C)NC(=O)[C@H](CC(C)C)NC(=O)[C@H](CCCNC(=N)N)NC(=O)[C@H](CCC(N)=O)NC(=O)[C@@H](NC(=O)[C@H](C)NC(=O)[C@@H]1CSSC[C@H](NC(=O)[C@@H](N)CCCCNC(=O)COCCOCCNC(=O)CC[C@H](NC(=O)CCCCCCCCCCCCCCCCCCC(=O)O)C(=O)O)C(=O)N[C@@H](CC(N)=O)C(=O)N[C@@H]([C@@H](C)O)C(=O)N[C@@H](C)C(=O)N[C@@H]([C@@H](C)O)C(=O)N1)[C@@H](C)O)C(=O)N1CCC[C@H]1C(=O)N[C@@H](CO)C(=O)N[C@@H](CO)C(=O)N[C@H](C(=O)N1CCC[C@H]1C(=O)N[C@H](C(=O)NCC(=O)N[C@@H](CO)C(=O)N[C@@H](CC(N)=O)C(=O)N[C@H](C(=O)N[C@@H](Cc1ccc(O)cc1)C(N)=O)[C@@H](C)O)C(C)C)[C@@H](C)O
# notes: Analogue of human amylin; also called compound 71
# B2: N^ε1-[2-[2-[2-[[(4S)-4-carboxy-4-(19-carboxynonadecanoylamino)butanoyl]amino]ethoxy]ethoxy]acetyl]-[His14,Arg17,Pro21,Pro27,Pro31]-h-amylin (peptide)
# peptide: K([AEEA-γGlu-C20 diacid])CNTATCATQRLAHFLRHSSPNFGAIPSSTPVGSNTY-NH2
# modifications: disulfide 2-7; N-terminus assumed
# SMILES: CC[C@H](C)[C@H](NC(=O)[C@H](C)NC(=O)CNC(=O)[C@H](Cc1ccccc1)NC(=O)[C@H](CC(N)=O)NC(=O)[C@@H]1CCCN1C(=O)[C@H](CO)NC(=O)[C@H](CO)NC(=O)[C@H](Cc1c[nH]cn1)NC(=O)[C@H](CCCNC(=N)N)NC(=O)[C@H](CC(C)C)NC(=O)[C@H](Cc1ccccc1)NC(=O)[C@H](Cc1c[nH]cn1)NC(=O)[C@H](C)NC(=O)[C@H](CC(C)C)NC(=O)[C@H](CCCNC(=N)N)NC(=O)[C@H](CCC(N)=O)NC(=O)[C@@H](NC(=O)[C@H](C)NC(=O)[C@@H]1CSSC[C@H](NC(=O)[C@@H](N)CCCCNC(=O)COCCOCCNC(=O)CC[C@H](NC(=O)CCCCCCCCCCCCCCCCCCC(=O)O)C(=O)O)C(=O)N[C@@H](CC(N)=O)C(=O)N[C@@H]([C@@H](C)O)C(=O)N[C@@H](C)C(=O)N[C@@H]([C@@H](C)O)C(=O)N1)[C@@H](C)O)C(=O)N1CCC[C@H]1C(=O)N[C@@H](CO)C(=O)N[C@@H](CO)C(=O)N[C@H](C(=O)N1CCC[C@H]1C(=O)N[C@H](C(=O)NCC(=O)N[C@@H](CO)C(=O)N[C@@H](CC(N)=O)C(=O)N[C@H](C(=O)N[C@@H](Cc1ccc(O)cc1)C(N)=O)[C@@H](C)O)C(C)C)[C@@H](C)O
# notes: Analogue of human amylin; also called compound 61
# B3: N^ε1-[2-[2-[2-[[(4S)-4-carboxy-4-(19-carboxynonadecanoylamino)butanoyl]amino]ethoxy]ethoxy]acetyl]-[His14,Arg17,Pro21,Pro27]-h-amylin (peptide)
# peptide: K([AEEA-γGlu-C20 diacid])CNTATCATQRLAHFLRHSSPNFGAIPSSTNVGSNTY-NH2
# modifications: disulfide 2-7; N-terminus assumed
# SMILES: CC[C@H](C)[C@H](NC(=O)[C@H](C)NC(=O)CNC(=O)[C@H](Cc1ccccc1)NC(=O)[C@H](CC(N)=O)NC(=O)[C@@H]1CCCN1C(=O)[C@H](CO)NC(=O)[C@H](CO)NC(=O)[C@H](Cc1c[nH]cn1)NC(=O)[C@H](CCCNC(=N)N)NC(=O)[C@H](CC(C)C)NC(=O)[C@H](Cc1ccccc1)NC(=O)[C@H](Cc1c[nH]cn1)NC(=O)[C@H](C)NC(=O)[C@H](CC(C)C)NC(=O)[C@H](CCCNC(=N)N)NC(=O)[C@H](CCC(N)=O)NC(=O)[C@@H](NC(=O)[C@H](C)NC(=O)[C@@H]1CSSC[C@H](NC(=O)[C@@H](N)CCCCNC(=O)COCCOCCNC(=O)CC[C@H](NC(=O)CCCCCCCCCCCCCCCCCCC(=O)O)C(=O)O)C(=O)N[C@@H](CC(N)=O)C(=O)N[C@@H]([C@@H](C)O)C(=O)N[C@@H](C)C(=O)N[C@@H]([C@@H](C)O)C(=O)N1)[C@@H](C)O)C(=O)N1CCC[C@H]1C(=O)N[C@@H](CO)C(=O)N[C@@H](CO)C(=O)N[C@H](C(=O)N[C@@H](CC(N)=O)C(=O)N[C@H](C(=O)NCC(=O)N[C@@H](CO)C(=O)N[C@@H](CC(N)=O)C(=O)N[C@H](C(=O)N[C@@H](Cc1ccc(O)cc1)C(N)=O)[C@@H](C)O)C(C)C)[C@@H](C)O
# notes: Analogue of human amylin; also called compound 69
# B4: N^ε1-[2-[2-[2-[[(4S)-4-carboxy-4-(19-carboxynonadecanoylamino)butanoyl]amino]ethoxy]ethoxy]acetyl]-[His14,Arg17,Pro21,Pro27,Pro34]-h-amylin (peptide)
# peptide: K([AEEA-γGlu-C20 diacid])CNTATCATQRLAHFLRHSSPNFGAIPSSTNVGPNTY-NH2
# modifications: disulfide 2-7; N-terminus assumed
# SMILES: CC[C@H](C)[C@H](NC(=O)[C@H](C)NC(=O)CNC(=O)[C@H](Cc1ccccc1)NC(=O)[C@H](CC(N)=O)NC(=O)[C@@H]1CCCN1C(=O)[C@H](CO)NC(=O)[C@H](CO)NC(=O)[C@H](Cc1c[nH]cn1)NC(=O)[C@H](CCCNC(=N)N)NC(=O)[C@H](CC(C)C)NC(=O)[C@H](Cc1ccccc1)NC(=O)[C@H](Cc1c[nH]cn1)NC(=O)[C@H](C)NC(=O)[C@H](CC(C)C)NC(=O)[C@H](CCCNC(=N)N)NC(=O)[C@H](CCC(N)=O)NC(=O)[C@@H](NC(=O)[C@H](C)NC(=O)[C@@H]1CSSC[C@H](NC(=O)[C@@H](N)CCCCNC(=O)COCCOCCNC(=O)CC[C@H](NC(=O)CCCCCCCCCCCCCCCCCCC(=O)O)C(=O)O)C(=O)N[C@@H](CC(N)=O)C(=O)N[C@@H]([C@@H](C)O)C(=O)N[C@@H](C)C(=O)N[C@@H]([C@@H](C)O)C(=O)N1)[C@@H](C)O)C(=O)N1CCC[C@H]1C(=O)N[C@@H](CO)C(=O)N[C@@H](CO)C(=O)N[C@H](C(=O)N[C@@H](CC(N)=O)C(=O)N[C@H](C(=O)NCC(=O)N1CCC[C@H]1C(=O)N[C@@H](CC(N)=O)C(=O)N[C@H](C(=O)N[C@@H](Cc1ccc(O)cc1)C(N)=O)[C@@H](C)O)C(C)C)[C@@H](C)O
# notes: Analogue of human amylin; also called compound 68
# B5: N^ε1-[2-[2-[2-[[(4S)-4-carboxy-4-(19-carboxynonadecanoylamino)butanoyl]amino]ethoxy]ethoxy]acetyl]-[His14,Arg17,Pro21,Pro27,His34]-h-amylin (peptide)
# peptide: K([AEEA-γGlu-C20 diacid])CNTATCATQRLAHFLRHSSPNFGAIPSSTNVGHNTY-NH2
# modifications: disulfide 2-7; N-terminus assumed
# SMILES: CC[C@H](C)[C@H](NC(=O)[C@H](C)NC(=O)CNC(=O)[C@H](Cc1ccccc1)NC(=O)[C@H](CC(N)=O)NC(=O)[C@@H]1CCCN1C(=O)[C@H](CO)NC(=O)[C@H](CO)NC(=O)[C@H](Cc1c[nH]cn1)NC(=O)[C@H](CCCNC(=N)N)NC(=O)[C@H](CC(C)C)NC(=O)[C@H](Cc1ccccc1)NC(=O)[C@H](Cc1c[nH]cn1)NC(=O)[C@H](C)NC(=O)[C@H](CC(C)C)NC(=O)[C@H](CCCNC(=N)N)NC(=O)[C@H](CCC(N)=O)NC(=O)[C@@H](NC(=O)[C@H](C)NC(=O)[C@@H]1CSSC[C@H](NC(=O)[C@@H](N)CCCCNC(=O)COCCOCCNC(=O)CC[C@H](NC(=O)CCCCCCCCCCCCCCCCCCC(=O)O)C(=O)O)C(=O)N[C@@H](CC(N)=O)C(=O)N[C@@H]([C@@H](C)O)C(=O)N[C@@H](C)C(=O)N[C@@H]([C@@H](C)O)C(=O)N1)[C@@H](C)O)C(=O)N1CCC[C@H]1C(=O)N[C@@H](CO)C(=O)N[C@@H](CO)C(=O)N[C@H](C(=O)N[C@@H](CC(N)=O)C(=O)N[C@H](C(=O)NCC(=O)N[C@@H](Cc1c[nH]cn1)C(=O)N[C@@H](CC(N)=O)C(=O)N[C@H](C(=O)N[C@@H](Cc1ccc(O)cc1)C(N)=O)[C@@H](C)O)C(C)C)[C@@H](C)O
# notes: Analogue of human amylin; also called compound 80
# Biological target: T1, rat calcitonin receptor (rat, UniProt P32214 25-516)
# T1 construct: whole, on cells; Used as membranes prepared from BHK tk'ts 13 cells transiently transfected with the rat calcitonin receptor (Assay VIII); also called rCTR; rat calcitonin (a) receptor
# T1 sequence (looked up): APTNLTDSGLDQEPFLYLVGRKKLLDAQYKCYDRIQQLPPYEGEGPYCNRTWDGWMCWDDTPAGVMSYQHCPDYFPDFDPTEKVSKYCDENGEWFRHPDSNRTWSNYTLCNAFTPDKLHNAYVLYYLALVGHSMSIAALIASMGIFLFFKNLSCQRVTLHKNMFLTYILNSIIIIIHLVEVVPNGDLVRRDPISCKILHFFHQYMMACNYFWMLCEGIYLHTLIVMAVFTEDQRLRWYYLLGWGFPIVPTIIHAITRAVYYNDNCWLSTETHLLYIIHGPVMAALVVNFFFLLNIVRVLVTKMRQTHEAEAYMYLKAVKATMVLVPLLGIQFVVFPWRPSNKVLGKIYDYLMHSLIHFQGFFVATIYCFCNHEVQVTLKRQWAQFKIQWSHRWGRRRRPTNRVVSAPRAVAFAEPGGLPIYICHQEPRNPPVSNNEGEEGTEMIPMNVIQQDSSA
# Assay: SPA competition with 125I-calcitonin, membranes of BHK cells with rat CTR (Assay VIII)
row,Binder,IC50 [nM]
1,B1,44.8
2,B2,33.4
3,B3,46.8
4,B4,28.5
5,B5,60.4

# Biological target: T2, rat amylin receptor (rat calcitonin receptor + rat RAMP 3) (rat, UniProt P32214 25-516; Q9JJ73 23-147)
# T2 construct: whole, on cells; Used as membranes prepared from BHK tk'ts 13 cells transiently transfected with rat calcitonin receptor and rat RAMP 3 (Assay VI); also called rAmylin-R; rat amylin 3(a) receptor
# T2 sequence (looked up) 1: T1 sequence (looked up)
# T2 sequence (looked up) 2: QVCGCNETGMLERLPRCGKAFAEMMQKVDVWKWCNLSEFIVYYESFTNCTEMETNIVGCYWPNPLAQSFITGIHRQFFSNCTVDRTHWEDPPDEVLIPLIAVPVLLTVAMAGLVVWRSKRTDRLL
# Assay: SPA competition with 125I-rat amylin, membranes of BHK cells with rat CTR + rat RAMP3 (Assay VI)
row,Binder,IC50 [nM]
1,B1,0.276
2,B2,0.842
3,B3,0.45
4,B4,0.234
5,B5,1.67

# Biological target: T1, rat calcitonin receptor
# Assay: IC50 on rat CTR divided by IC50 on rat amylin receptor (Assays VIII/VI)
row,Binder,Ratio rCT/rAmylin binding
1,B1,162
2,B2,39.7
3,B3,104
4,B4,122
5,B5,36.2

# Biological target: T3, human calcitonin receptor (human, UniProt P30988 25-474)
# T3 construct: whole, on cells; Used as membranes prepared from a BHK tk'ts 13 cell line stably transfected with the human calcitonin receptor (Assay VII); also called hCTR; hCT
# T3 sequence (looked up): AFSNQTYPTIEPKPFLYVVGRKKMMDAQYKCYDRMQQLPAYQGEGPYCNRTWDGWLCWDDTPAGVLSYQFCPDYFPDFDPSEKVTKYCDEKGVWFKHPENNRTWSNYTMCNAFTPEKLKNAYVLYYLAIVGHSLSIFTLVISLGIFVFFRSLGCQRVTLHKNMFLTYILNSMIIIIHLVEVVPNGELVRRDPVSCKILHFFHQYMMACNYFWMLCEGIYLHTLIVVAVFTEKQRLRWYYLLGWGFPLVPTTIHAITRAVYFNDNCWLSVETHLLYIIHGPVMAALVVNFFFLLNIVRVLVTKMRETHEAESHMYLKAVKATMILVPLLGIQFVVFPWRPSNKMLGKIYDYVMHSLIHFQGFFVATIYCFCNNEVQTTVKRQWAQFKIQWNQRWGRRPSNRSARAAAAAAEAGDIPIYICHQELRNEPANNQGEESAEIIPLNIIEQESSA
# Assay: IC50 on human CTR divided by IC50 on human amylin receptor (Assays VII/V)
# How it was run: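 Competition binding by SPA uses membrane preparations (35 ng/μL final) in pH 7.4 Hepes buffer with 1 mM CaCl2 and 5 mM MgCl₂. Incubation lasts 120 min at 25° C, and IC₅₀ comes from one-site fitting.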
row,Binder,Ratio hCT/hAmylin binding
1,B1,32
2,B2,66.7
3,B3,65.3
4,B4,64.4
5,B5,68.1
